Measurements from publication PMC11087509 (2024).
Where no end group is shown, it is not given here. [ ]: non-standard residue; d: D form. Gu = N-terminal tetramethylguanidine; Orn = NCCC[C@H](N)C(=O)O

Tests used:
[1] = target: T1, purified E. coli 70S ribosome (E. coli (endogenous in BW25113), UniProt P60723 1-201; P61175 1-110; P0ADZ0 1-100; P0A7M6 1-63; P0A7J3 1-165); experiment: FP; competition with cf-Api88
[2] = target: T1, purified E. coli 70S ribosome; experiment: FP; competition with cf-Api88; remark: listed apart in the source
[3] = target: purified E. coli 30S ribosomal subunit (E. coli (endogenous in MRE600)); experiment: FP
[4] = target: purified E. coli 50S ribosomal subunit (E. coli (endogenous in MRE600), UniProt P60723 1-201; P61175 1-110; P0ADZ0 1-100; P0A7M6 1-63; P0A7J3 1-165); experiment: FP
[5] = target: T1, purified E. coli 70S ribosome; experiment: FP

| Binder | Ki [1] [µM] | IC50 [2] [µM] | Kd [3] [µM] | Kd [4] [µM] | Kd [5] [µM] |
| --- | --- | --- | --- | --- | --- |
| Gu-[Orn]NNRPVYIPRPRPPHPRL-NH2 [Api88 (Gu-ONNRPVYIPRPRPPHPRL-NH2)] | 2.45 | 12.8 | – | – | – |
| Gu-[Orn](5(6)‑carboxyfluorescein)NNRPVYIPRPRPPHPRL-OH [cf-Api137 (5(6)-carboxyfluorescein-labeled Api137, Gu-ONNRPVYIPRPRPPHPRL-OH)] | – | – | 20.2 | – | – |
| Gu-[Orn]NNRPVYIPRPRPPHPRL-OH [Api137 (Gu-ONNRPVYIPRPRPPHPRL-OH)] | 3.03 | 15.9 | – | – | – |
| {5(6)‑carboxyfluorescein}-VDKPPYLPRPRPPR[dR]IYN[dR]-NH2 [cf-Onc112 (5(6)-carboxyfluorescein-labeled Onc112, VDKPPYLPRPRPPRrIYNr-NH2)] | – | – | 1.14 | 0.05 | 0.06 |
| VDKPPYLPRPRPPR[dR]IYN[dR]-NH2 [Onc112 (VDKPPYLPRPRPPRrIYNr-NH2)] | 1.87 | 9.8 | – | – | – |
| Gu-[Orn](5(6)‑carboxyfluorescein)NNRPVYIPRPRPPHPRL-NH2 [cf-Api88 (5(6)-carboxyfluorescein-labeled Api88, Gu-ONNRPVYIPRPRPPHPRL-NH2)] | – | – | 14.3 | – | – |
